Measured values as given in patent US20080227698A1, “OLIGOPEPTIDES FOR TREATMENT OF OSTEOPOROSIS AND OTHER BONE DISEASES AND METHODS THEREOF” (Washington University, priority 2005, published 2008).

Key:
[1] = biological target: T1, LRP6 (Homo sapiens, UniProt O75581); experiment: Cell surface Myc-DKK1 binding and immunodetection on LRP6-transduced HT1080 cells; set-up: plasmid pCS-Myc-hLRP6 containing the full-length human LRP6 cDNA; HA; expressed in transfected cells; host or cells: human HT1080 cells, stably transduced (pLNCX2 retroviral vector); conditions: 1 μM Mesd, room temperature 60 minutes, immunofluorescence
Description: Values are the means of triple determinations with the s.d. indicated by error bars. Bar, 10 μm.

[2] = biological target: LRP5 (Homo sapiens, UniProt O75197); experiment: ^125I-DKK1 binding to LRP5, competition by Mesd or oligopeptide (FIG. 10B)
Method: In order to investigate the binding of Mesd polypeptide and an Mesd oligopeptide to either LRP5 or LRP6, binding assays were performed using ^125I-Mesd or ^125I-DKK1 (FIG. 10).

[3] = test system: LRP6; experiment: ^125I-Mesd cell surface ligand binding to LRP6-transduced HT1080 cells; set-up: species or system human; conditions: HT1080 cells transduced with vector alone, ^125I-Mesd 5 nM, 4° C.
Method: To examine whether Mesd binds with high affinity to […] at the cell surface, cell surface ligand binding experiments were performed with cells stably transduced with LRP6 cDNA. Human HT1080 cells, which express undetectable levels of LRP6, were transduced with a viral vector alone (pLNCX2) or with vector containing LRP6 cDNA (Li, Y., Oncogene 23: 9129-9135, 2004) and used for ^125I-Mesd binding (FIG. 1A). ^125I-Mesd (5 nM) reached maximal binding after 2 hours incubation at 4° C. with LRP6-expressing HT1080 cells (FIG. 1A).
(A) Time course of ^125I-Mesd (5 nM) binding to LRP6-transduced HT1080 cells and the control cells. Assay was carried out for the indicated periods at 4° C. in the absence (total) or presence of 500 nM Mesd (non-specific). (B) Saturation binding of ^125I-Mesd to LRP6-transduced HT1080 cells and the control cells. Assay was carried out at indicated concentrations for 3 hours at 4° C. in the absence (total) or presence (non-specific) of 500 nM Mesd. (C) Scatchard plots of data in B. All values are the average of triple determinations with the s.d. indicated by error bars.
Cells (2×10^5) were seeded into 12-well dishes 1 day prior to assay. […] Thereafter, overlying buffer containing unbound ligand was removed, and cell monolayers were washed and lysed in low-SDS lysis buffer (62.5 mM Tris-HCl pH 6.8, 0.2% SDS, 10% v/glycerol) and counted.

[4] = biological target: T1, LRP6; experiment: ^125I-DKK1 binding to LRP6-transduced HT1080 cells; set-up: plasmid pCS-Myc-hLRP6 containing the full-length human LRP6 cDNA; HA; expressed in transfected cells; host or cells: human HT1080 cells, stably transduced (pLNCX2 retroviral vector); conditions: 500 nM competitor, ^125I-DKK1 5 nM, 3 hours at 4° C.
Method: Cells (2×10^5) were seeded into 12-well dishes 1 day prior to assay. Ligand-binding buffer (minimal Eagle's medium containing 0.6% BSA with a different concentration of radioligand, 0.6 ml/well) was added to cell monolayers, in the absence or the presence of 500 nM unlabeled RAP or 500 nM unlabeled Mesd, followed with incubation for 0-4 hours at 4° C. Thereafter, overlying buffer containing unbound ligand was removed, and cell monolayers were washed and lysed in low-SDS lysis buffer (62.5 mM Tris-HCl pH 6.8, 0.2% SDS, 10% v/glycerol) and counted.
RAP is a receptor antagonist for members of the LDLR family, and is able to inhibit the binding of most known ligands of the LDLR family members. […] In these experiments, Serum-free conditioned medium was harvested from HEK293 cells transiently transfected with cDNA for human Myc-DKK1 and allowed to bind to LRP6-transduced HT1080 cells (B,C) and control cells (A) in the absence (A,B) or presence (C) of 1 μM Mesd. Cell-surface-bound Myc-tagged DKK proteins were fixed and detected by immunofluorescence staining with anti-Myc antibody. […] Binding of 125I-DKK1 (5 nM) to LRP6-transduced HT1080 cells or the control cells was carried out for 3 hours at 4° C. in the absence (total) or presence of 500 nM RAP or 500 nM Mesd. […] LRP6-mediated 125I-Mesd (5 nM) degradation was carried out for 4 hours at 37° C. in the absence or presence of 500 nM RAP or 500 nM Mesd. Values are the means of triple determinations with the s.d. indicated by error bars. Bar, 10 μm.

T1 sequence (O75581 20-1613): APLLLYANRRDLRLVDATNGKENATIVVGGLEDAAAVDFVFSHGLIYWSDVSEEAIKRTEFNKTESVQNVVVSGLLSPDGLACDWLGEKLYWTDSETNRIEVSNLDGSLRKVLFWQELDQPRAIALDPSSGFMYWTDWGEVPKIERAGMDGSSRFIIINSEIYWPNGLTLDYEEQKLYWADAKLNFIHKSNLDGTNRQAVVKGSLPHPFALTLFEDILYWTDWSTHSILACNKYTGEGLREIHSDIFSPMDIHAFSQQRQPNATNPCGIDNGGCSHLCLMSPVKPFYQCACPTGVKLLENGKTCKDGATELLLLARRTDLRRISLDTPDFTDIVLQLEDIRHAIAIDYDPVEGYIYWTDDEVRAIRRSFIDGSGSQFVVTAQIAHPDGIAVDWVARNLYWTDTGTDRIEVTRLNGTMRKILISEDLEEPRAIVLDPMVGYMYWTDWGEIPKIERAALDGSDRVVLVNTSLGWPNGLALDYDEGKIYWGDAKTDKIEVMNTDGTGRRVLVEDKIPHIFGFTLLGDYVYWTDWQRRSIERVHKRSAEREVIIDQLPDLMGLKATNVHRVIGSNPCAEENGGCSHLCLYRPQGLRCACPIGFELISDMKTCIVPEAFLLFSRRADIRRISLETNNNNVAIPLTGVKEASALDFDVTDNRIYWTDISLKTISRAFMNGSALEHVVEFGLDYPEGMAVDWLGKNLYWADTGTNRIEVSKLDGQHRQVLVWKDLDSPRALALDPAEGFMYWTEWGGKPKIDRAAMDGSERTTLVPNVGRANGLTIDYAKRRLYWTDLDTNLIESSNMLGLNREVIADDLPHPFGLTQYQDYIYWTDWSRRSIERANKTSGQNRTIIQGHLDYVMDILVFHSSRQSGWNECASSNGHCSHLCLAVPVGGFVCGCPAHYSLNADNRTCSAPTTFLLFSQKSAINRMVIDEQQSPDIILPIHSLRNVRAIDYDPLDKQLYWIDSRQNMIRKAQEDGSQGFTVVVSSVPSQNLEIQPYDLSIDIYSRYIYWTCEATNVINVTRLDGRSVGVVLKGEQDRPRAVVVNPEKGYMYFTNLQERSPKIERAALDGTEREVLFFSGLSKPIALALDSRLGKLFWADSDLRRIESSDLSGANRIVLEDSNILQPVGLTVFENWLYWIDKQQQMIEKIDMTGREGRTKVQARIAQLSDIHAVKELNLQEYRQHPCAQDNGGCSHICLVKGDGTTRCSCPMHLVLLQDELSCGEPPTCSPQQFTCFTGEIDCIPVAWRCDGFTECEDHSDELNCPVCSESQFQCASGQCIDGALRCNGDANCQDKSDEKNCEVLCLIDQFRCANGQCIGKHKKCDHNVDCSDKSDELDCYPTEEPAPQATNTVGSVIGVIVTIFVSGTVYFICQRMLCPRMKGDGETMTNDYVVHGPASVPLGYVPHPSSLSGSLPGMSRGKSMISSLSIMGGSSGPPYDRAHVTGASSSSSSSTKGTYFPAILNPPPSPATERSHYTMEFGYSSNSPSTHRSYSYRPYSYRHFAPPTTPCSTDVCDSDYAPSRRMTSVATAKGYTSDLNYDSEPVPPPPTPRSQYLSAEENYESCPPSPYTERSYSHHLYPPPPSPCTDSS
Chain of LRP5 (O75197 32-1615): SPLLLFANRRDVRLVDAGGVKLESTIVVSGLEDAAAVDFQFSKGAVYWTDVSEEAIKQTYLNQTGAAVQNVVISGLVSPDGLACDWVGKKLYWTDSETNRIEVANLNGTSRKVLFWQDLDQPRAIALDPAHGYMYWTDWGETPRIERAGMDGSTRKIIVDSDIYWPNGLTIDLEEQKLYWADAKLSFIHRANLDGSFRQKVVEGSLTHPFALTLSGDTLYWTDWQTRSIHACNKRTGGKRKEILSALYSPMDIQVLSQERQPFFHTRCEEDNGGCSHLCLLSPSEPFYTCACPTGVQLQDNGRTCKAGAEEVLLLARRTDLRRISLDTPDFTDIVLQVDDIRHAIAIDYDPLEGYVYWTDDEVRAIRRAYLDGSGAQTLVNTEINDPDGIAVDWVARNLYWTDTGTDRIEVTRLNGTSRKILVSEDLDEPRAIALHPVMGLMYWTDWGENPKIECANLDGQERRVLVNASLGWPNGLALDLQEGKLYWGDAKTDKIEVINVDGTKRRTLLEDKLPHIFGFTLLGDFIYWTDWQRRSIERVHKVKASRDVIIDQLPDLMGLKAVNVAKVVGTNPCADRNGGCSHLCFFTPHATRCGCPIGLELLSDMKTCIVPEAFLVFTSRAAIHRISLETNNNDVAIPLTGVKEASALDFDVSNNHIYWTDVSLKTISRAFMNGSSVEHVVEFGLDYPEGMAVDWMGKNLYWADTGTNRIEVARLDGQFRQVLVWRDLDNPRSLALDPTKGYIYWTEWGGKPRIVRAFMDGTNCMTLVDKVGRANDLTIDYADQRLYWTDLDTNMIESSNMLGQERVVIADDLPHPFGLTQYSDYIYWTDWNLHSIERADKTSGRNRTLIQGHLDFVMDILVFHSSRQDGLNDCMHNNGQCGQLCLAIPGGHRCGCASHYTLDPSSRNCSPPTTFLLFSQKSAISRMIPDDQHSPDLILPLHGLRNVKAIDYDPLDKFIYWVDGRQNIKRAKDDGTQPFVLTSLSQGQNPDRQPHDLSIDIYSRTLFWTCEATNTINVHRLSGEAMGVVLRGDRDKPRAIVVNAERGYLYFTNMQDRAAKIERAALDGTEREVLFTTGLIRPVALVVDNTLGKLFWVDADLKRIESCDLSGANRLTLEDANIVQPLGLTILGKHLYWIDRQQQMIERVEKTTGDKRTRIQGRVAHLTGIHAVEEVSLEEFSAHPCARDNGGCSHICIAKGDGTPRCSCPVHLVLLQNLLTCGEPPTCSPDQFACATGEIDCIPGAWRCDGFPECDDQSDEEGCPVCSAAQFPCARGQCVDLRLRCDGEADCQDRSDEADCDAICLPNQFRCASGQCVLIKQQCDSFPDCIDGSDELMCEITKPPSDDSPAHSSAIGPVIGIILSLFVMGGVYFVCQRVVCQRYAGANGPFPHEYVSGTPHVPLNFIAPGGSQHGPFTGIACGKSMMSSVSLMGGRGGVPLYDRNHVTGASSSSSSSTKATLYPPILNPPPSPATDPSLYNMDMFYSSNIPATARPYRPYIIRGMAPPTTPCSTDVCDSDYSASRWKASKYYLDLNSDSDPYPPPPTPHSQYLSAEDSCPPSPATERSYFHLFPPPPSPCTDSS

Effect on binding of Myc-DKK1 to LRP6 at the cell surface [1]: completely blocked | Reduction in binding of ^125I-DKK1 to LRP5 [2]: small but significant reduction | Effect of excess unlabeled competitor on increased DKK1 binding [4]: abolished
B1: Mesd: recombinant wild-type mouse Mesd, polyhistidine tail at the N-terminus, lacks the signal peptide, expressed in E. coli (protein)
chain: ADTPGEATPPPRKKKDIRDYNDADMARLLEQWEKDDDIEEGDLPEHKRPSAPIDFSKLDPGKPESILKMTKKGKTLMMFVTVSGNPTEKETEEITSLWQGSLFNANYDVQRFIVGSDRAIFMLRDGSYAWEIKDFLVSQDRCAEVTLEGQMYPGKGGGSKEKNKTKPEKAKKKEGDRKPRASKEDNRAGSRREDL
modifications: left off: small tags and cut ends
notes: recombinant wild-type mouse Mesd, polyhistidine tail at the N-terminus, lacks the signal peptide, expressed in E. coli
^125I-Mesd binding to control cells (pLNCX2) [3]: No significant ^125I-Mesd binding
